Measured values reported in the Human Domainome abundance scans (Beltran et al. 2025).
± gives the uncertainty stated by the source.

B1: Pyruvate dehydrogenase protein X component, mitochondrial, residues 181 to 227; numbered along this chain, O00330 (parent)
chain: RFRLSPAARNILEKHSLDASQGTATGPRGIFTKEDALKLVQLKQTGK

Variants of: B1
Experiment: abundance fitness (aPCA) (normalised: wild type 0, dead -1); higher = more abundant; growth selection in yeast, the domain comes from the species named
Conditions: Homo sapiens

First: RFRLSPAARNILEKHSLDASQGRATGPRGIFTKEDALKLVQLKQTGK [T23R]
Second: RFRLSPAARNILEKHSLDASQGSATGPRGIFTKEDALKLVQLKQTGK [T23S]
The abundance fitness of the first is lower: -0.237 ± 0.045 for the first, -0.138 ± 0.044 for the second.

Compared with RFRLSPAARNILEKHSLDASQGVATGPRGIFTKEDALKLVQLKQTGK [T23V], RFRLSPAARNILEKHSLDASQGWATGPRGIFTKEDALKLVQLKQTGK [T23W] is lower in abundance fitness: 0.006 ± 0.058 for the first, -0.424 ± 0.073 for the second.

Compared with RFRLSPAARNILEKHSLDASQGYATGPRGIFTKEDALKLVQLKQTGK [T23Y], RFRLSPAARNILEKHSLDASQGTCTGPRGIFTKEDALKLVQLKQTGK [A24C] is lower in abundance fitness: -0.309 ± 0.071 for the first, -0.473 ± 0.089 for the second.

First: RFRLSPAARNILEKHSLDASQGTDTGPRGIFTKEDALKLVQLKQTGK [A24D]
Second: RFRLSPAARNILEKHSLDASQGTETGPRGIFTKEDALKLVQLKQTGK [A24E]
The abundance fitness of the first is lower: -0.661 ± 0.079 for the first, -0.333 ± 0.082 for the second.

Compared with RFRLSPAARNILEKHSLDASQGTFTGPRGIFTKEDALKLVQLKQTGK [A24F], RFRLSPAARNILEKHSLDASQGTGTGPRGIFTKEDALKLVQLKQTGK [A24G] is higher in abundance fitness: -0.667 ± 0.086 for the first, -0.331 ± 0.068 for the second.

Going from RFRLSPAARNILEKHSLDASQGTHTGPRGIFTKEDALKLVQLKQTGK [A24H] to RFRLSPAARNILEKHSLDASQGTKTGPRGIFTKEDALKLVQLKQTGK [A24K], the abundance fitness falls from -0.454 ± 0.053 to -0.638 ± 0.13.

First: RFRLSPAARNILEKHSLDASQGTLTGPRGIFTKEDALKLVQLKQTGK [A24L]
Second: RFRLSPAARNILEKHSLDASQGTNTGPRGIFTKEDALKLVQLKQTGK [A24N]
The abundance fitness of the first is lower: -0.532 ± 0.051 for the first, -0.31 ± 0.07 for the second.

First: RFRLSPAARNILEKHSLDASQGTPTGPRGIFTKEDALKLVQLKQTGK [A24P]
Second: RFRLSPAARNILEKHSLDASQGTQTGPRGIFTKEDALKLVQLKQTGK [A24Q]
The abundance fitness of the first is higher: -0.191 ± 0.069 for the first, -0.597 ± 0.11 for the second.

Compared with RFRLSPAARNILEKHSLDASQGTSTGPRGIFTKEDALKLVQLKQTGK [A24S], RFRLSPAARNILEKHSLDASQGTTTGPRGIFTKEDALKLVQLKQTGK [A24T] is lower in abundance fitness: -0.271 ± 0.059 for the first, -0.423 ± 0.051 for the second.

Going from RFRLSPAARNILEKHSLDASQGTVTGPRGIFTKEDALKLVQLKQTGK [A24V] to RFRLSPAARNILEKHSLDASQGTYTGPRGIFTKEDALKLVQLKQTGK [A24Y], the abundance fitness falls from -0.476 ± 0.055 to -1.07 ± 0.25.

RFRLSPAARNILEKHSLDASQGTAAGPRGIFTKEDALKLVQLKQTGK [T25A] and RFRLSPAARNILEKHSLDASQGTACGPRGIFTKEDALKLVQLKQTGK [T25C] are within error of each other in abundance fitness: -0.566 ± 0.072 for the first, -0.423 ± 0.095 for the second.

RFRLSPAARNILEKHSLDASQGTADGPRGIFTKEDALKLVQLKQTGK [T25D] and RFRLSPAARNILEKHSLDASQGTAEGPRGIFTKEDALKLVQLKQTGK [T25E] are within error of each other in abundance fitness: -0.582 ± 0.094 for the first, -0.765 ± 0.11 for the second.

Going from RFRLSPAARNILEKHSLDASQGTAFGPRGIFTKEDALKLVQLKQTGK [T25F] to RFRLSPAARNILEKHSLDASQGTAGGPRGIFTKEDALKLVQLKQTGK [T25G], the abundance fitness rises from -0.697 ± 0.082 to -0.445 ± 0.046.

RFRLSPAARNILEKHSLDASQGTAHGPRGIFTKEDALKLVQLKQTGK [T25H] and RFRLSPAARNILEKHSLDASQGTAIGPRGIFTKEDALKLVQLKQTGK [T25I] are within error of each other in abundance fitness: -0.58 ± 0.15 for the first, -0.668 ± 0.13 for the second.

RFRLSPAARNILEKHSLDASQGTAKGPRGIFTKEDALKLVQLKQTGK [T25K] and RFRLSPAARNILEKHSLDASQGTALGPRGIFTKEDALKLVQLKQTGK [T25L] are within error of each other in abundance fitness: -0.414 ± 0.1 for the first, -0.519 ± 0.048 for the second.

Going from RFRLSPAARNILEKHSLDASQGTAMGPRGIFTKEDALKLVQLKQTGK [T25M] to RFRLSPAARNILEKHSLDASQGTAPGPRGIFTKEDALKLVQLKQTGK [T25P], the abundance fitness falls from -0.423 ± 0.072 to -0.559 ± 0.064.

RFRLSPAARNILEKHSLDASQGTAQGPRGIFTKEDALKLVQLKQTGK [T25Q] and RFRLSPAARNILEKHSLDASQGTARGPRGIFTKEDALKLVQLKQTGK [T25R] are within error of each other in abundance fitness: -0.522 ± 0.052 for the first, -0.563 ± 0.053 for the second.

Compared with RFRLSPAARNILEKHSLDASQGTAVGPRGIFTKEDALKLVQLKQTGK [T25V], RFRLSPAARNILEKHSLDASQGTAWGPRGIFTKEDALKLVQLKQTGK [T25W] is lower in abundance fitness: -0.476 ± 0.077 for the first, -1.06 ± 0.12 for the second.

First: RFRLSPAARNILEKHSLDASQGTAYGPRGIFTKEDALKLVQLKQTGK [T25Y]
Second: RFRLSPAARNILEKHSLDASQGTATAPRGIFTKEDALKLVQLKQTGK [G26A]
The abundance fitness of the first is lower: -0.86 ± 0.13 for the first, -0.603 ± 0.056 for the second.

First: RFRLSPAARNILEKHSLDASQGTATCPRGIFTKEDALKLVQLKQTGK [G26C]
Second: RFRLSPAARNILEKHSLDASQGTATDPRGIFTKEDALKLVQLKQTGK [G26D]
The abundance fitness of the first is lower: -0.903 ± 0.12 for the first, -0.444 ± 0.056 for the second.

RFRLSPAARNILEKHSLDASQGTATEPRGIFTKEDALKLVQLKQTGK [G26E] and RFRLSPAARNILEKHSLDASQGTATFPRGIFTKEDALKLVQLKQTGK [G26F] are within error of each other in abundance fitness: -0.539 ± 0.085 for the first, -0.642 ± 0.081 for the second.

Going from RFRLSPAARNILEKHSLDASQGTATHPRGIFTKEDALKLVQLKQTGK [G26H] to RFRLSPAARNILEKHSLDASQGTATKPRGIFTKEDALKLVQLKQTGK [G26K], the abundance fitness falls from -0.46 ± 0.043 to -0.571 ± 0.055.

RFRLSPAARNILEKHSLDASQGTATLPRGIFTKEDALKLVQLKQTGK [G26L] and RFRLSPAARNILEKHSLDASQGTATMPRGIFTKEDALKLVQLKQTGK [G26M] are within error of each other in abundance fitness: -0.516 ± 0.057 for the first, -0.435 ± 0.069 for the second.

RFRLSPAARNILEKHSLDASQGTATNPRGIFTKEDALKLVQLKQTGK [G26N] and RFRLSPAARNILEKHSLDASQGTATPPRGIFTKEDALKLVQLKQTGK [G26P] are within error of each other in abundance fitness: -0.505 ± 0.096 for the first, -0.55 ± 0.076 for the second.

RFRLSPAARNILEKHSLDASQGTATQPRGIFTKEDALKLVQLKQTGK [G26Q] and RFRLSPAARNILEKHSLDASQGTATSPRGIFTKEDALKLVQLKQTGK [G26S] are within error of each other in abundance fitness: -0.483 ± 0.077 for the first, -0.608 ± 0.068 for the second.

First: RFRLSPAARNILEKHSLDASQGTATVPRGIFTKEDALKLVQLKQTGK [G26V]
Second: RFRLSPAARNILEKHSLDASQGTATWPRGIFTKEDALKLVQLKQTGK [G26W]
The abundance fitness of the first is higher: -0.489 ± 0.043 for the first, -0.874 ± 0.057 for the second.

Going from RFRLSPAARNILEKHSLDASQGTATYPRGIFTKEDALKLVQLKQTGK [G26Y] to RFRLSPAARNILEKHSLDASQGTATGCRGIFTKEDALKLVQLKQTGK [P27C], the abundance fitness rises from -0.8 ± 0.17 to -0.323 ± 0.067.

For RFRLSPAARNILEKHSLDASQGTATGDRGIFTKEDALKLVQLKQTGK [P27D], the abundance fitness was -0.022 ± 0.07.
